Literature values in publication PMC3869910.

Molecular target: alpha-bungarotoxin (Bungarus multicinctus) (UniProt P60615)
Chain of UniProt P60615 (P60615 22-95): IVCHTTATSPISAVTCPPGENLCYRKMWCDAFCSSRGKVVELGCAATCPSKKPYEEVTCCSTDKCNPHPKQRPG

nicotinic acetylcholine receptor alpha1 (y-α1-ECD) ECD (from UniProt P02708)
Kd: 5 nM
